From patent publication US20230272011A1 (AVACTA LIFE SCIENCES, published 2023)
Where two headings read alike, the source gives them in different places.

Tests used:
[1] = target: T1, human serum albumin (human, UniProt P02768 25-609); assay: BLI (Octet), biotinylated albumin on SA sensor, pH 6.0
T1 construct: mature; Bought protein; biotinylated in the Octet and HTRF assays; also called HSA; HuSA
Procedure: (§1) Biotinylated antigen was captured onto SA sensors at 1 μg/ml for 600 seconds in a buffer comprising PBS-T (0.01% Tween 20)+1% casein at either pH 6.0 or 7.4. Association was carried out for 300 seconds and dissociation for 600 seconds, and regeneration was performed using 10 mM glycine pH 1.5 (GE Healthcare) for 3×5 seconds. All steps were carried out at 1000 rpm and 25° C. Purified AFFIMER® polypeptide in two-fold serial dilutions was analyzed at a starting concentration of approximately 10× K_{D value}. Kinetics analyses were carried out using the Octet data analysis software, subtracting the reference sensor (loaded with antigen), aligning the Y-axis to baseline, and using inter-step correction to align association to dissociation. Savitzky-Golay filtering was applied and the data processed. Analysis of the data was carried out with a 1:1 model, global fit, Rₘₐₓ unlinked by sensor.

[2] = target: T2, mouse serum albumin (mouse, UniProt P07724 25-608); assay: as above
T2 construct: also called MSA
T2 sequence (P07724 25-608 limits assumed): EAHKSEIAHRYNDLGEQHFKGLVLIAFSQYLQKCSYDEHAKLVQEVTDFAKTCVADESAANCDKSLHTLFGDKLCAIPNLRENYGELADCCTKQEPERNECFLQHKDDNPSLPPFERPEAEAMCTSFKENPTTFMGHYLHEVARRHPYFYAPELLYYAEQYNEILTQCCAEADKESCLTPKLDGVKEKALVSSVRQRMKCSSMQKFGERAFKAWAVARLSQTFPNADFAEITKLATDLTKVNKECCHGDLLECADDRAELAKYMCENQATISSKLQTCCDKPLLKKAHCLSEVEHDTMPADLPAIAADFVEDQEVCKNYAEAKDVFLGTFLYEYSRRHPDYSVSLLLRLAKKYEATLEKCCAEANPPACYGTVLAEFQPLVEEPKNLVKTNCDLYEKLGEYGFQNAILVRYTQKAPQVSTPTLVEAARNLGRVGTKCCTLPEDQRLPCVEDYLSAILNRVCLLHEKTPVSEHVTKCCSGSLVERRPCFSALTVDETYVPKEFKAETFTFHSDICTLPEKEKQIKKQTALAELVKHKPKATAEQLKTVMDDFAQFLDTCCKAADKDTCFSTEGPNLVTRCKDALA
Procedure: as §1

[3] = target: T3, cynomolgus serum albumin (cynomolgus); assay: as above
T3 construct: also called CSA; cyno serum albumin
T3 sequence (A2V9Z4 25-608): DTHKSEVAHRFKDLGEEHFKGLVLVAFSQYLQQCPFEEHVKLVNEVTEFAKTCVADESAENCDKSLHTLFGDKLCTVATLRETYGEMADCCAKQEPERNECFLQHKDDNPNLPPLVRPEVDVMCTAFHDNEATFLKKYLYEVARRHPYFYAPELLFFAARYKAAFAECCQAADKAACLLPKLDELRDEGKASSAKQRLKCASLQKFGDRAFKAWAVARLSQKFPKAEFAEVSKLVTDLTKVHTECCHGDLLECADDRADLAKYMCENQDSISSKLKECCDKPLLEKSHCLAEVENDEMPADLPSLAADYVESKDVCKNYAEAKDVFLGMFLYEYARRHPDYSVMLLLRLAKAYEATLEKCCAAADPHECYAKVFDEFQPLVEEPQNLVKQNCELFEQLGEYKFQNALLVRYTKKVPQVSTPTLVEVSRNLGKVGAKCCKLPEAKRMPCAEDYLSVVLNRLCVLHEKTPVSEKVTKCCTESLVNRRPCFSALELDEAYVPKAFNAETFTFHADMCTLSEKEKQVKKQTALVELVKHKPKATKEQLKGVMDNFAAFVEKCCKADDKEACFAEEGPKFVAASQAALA
Procedure: as §1

[4] = target: T1, human serum albumin; assay: BLI (Octet), biotinylated albumin on SA sensor, pH 7.4
Procedure: as §1

[5] = target: T3, cynomolgus serum albumin; assay: as above
Procedure: as §1

[6] = target: T1, human serum albumin; assay: SPR (Biacore) binding response to HSA at pH 7.4, Affimer at 50 nM
Text: (§2) Final clones were sequence-verified, produced from E. coli, and affinity purified as described in Example 3.

[7] = target: T1, human serum albumin; assay: SPR (Biacore) response to HSA, pH 7.4
Text: as §2

[8] = target: T4, human PD-L1-Fc (R&D Systems) chimeric protein (human, UniProt Q9NZQ7 19-239); assay: SPR (Biacore T200), PD-L1-Fc amine-coupled to CM5, Affimer analyte
T4 construct: Bought reagent; also called rhPD-L1-Fc; huPD-L1; Fc part of the bought chimera not given, not described
T4 sequence (Q9NZQ7 19-239, change not shown): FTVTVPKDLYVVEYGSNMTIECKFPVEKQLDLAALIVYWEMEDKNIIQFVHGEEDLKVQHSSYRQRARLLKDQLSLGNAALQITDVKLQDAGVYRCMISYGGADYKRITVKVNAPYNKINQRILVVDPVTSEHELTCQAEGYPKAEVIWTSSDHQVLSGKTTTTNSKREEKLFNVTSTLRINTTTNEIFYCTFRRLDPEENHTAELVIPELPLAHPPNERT
Procedure: (§3) ILF dimer production from E. coli was performed as described in Example 3. Briefly, protein was purified using three stages: affinity capture, IEX, and preparative SEC. […] To analyze PD-L1-Fc binding kinetics, a Biacore T200 kinetic analysis was performed using running buffer HBS-EP+ and series S sensor CM5 (GE Healthcare) chip Fc2 immobilized with PD-L1-Fc (R&D Systems) in 10 mM sodium acetate pH 4.0 using amine coupling reagents (GE Healthcare). The concentration titration of ILF AFFIMER® polypeptides was run as analyte at a flow rate of 30 μl/min. […] with 3 mM NaOH (GE healthcare) for 20 seconds at 20 μl/min flow rate. The Fc2-1 data blank was subtracted and fit to a 1:1 Langmuir binding model (Biacore evaluation software; GE) to calculate an apparent KD value.

[9] = target: T1, human serum albumin; assay: SPR (Biacore), immobilised HSA, Affimer analyte
[10] = target: T4, human PD-L1-Fc (R&D Systems) chimeric …; assay: SPR (Biacore T200), PD-L1-Fc amine-coupled to CM5, Affimer analyte; apparent KD
Procedure: as §3

[11] = target: T1, human serum albumin; assay: SPR (Biacore), immobilised HSA, Affimer analyte; remark: listed apart in the source
Procedure: Affinities for mouse, human, and cynomolgus serum were also measured at pH 7.4 for four (4) AFFIMER® binders using surface plasmon resonance (SPR) (FIG. 5, Table 5). […] A concentration titration of AFFIMER® monomers was run as analyte at a flow rate of 30 μl/min or 60 μl/min. Fc2-1, Fc3-1 and Fc4-1 kinetic data was blank subtracted and fit to a 1:1 Langmuir binding model (BIAcore Evalution software; GE) to calculate KD values. […]

[12] = target: T1, human serum albumin; assay: binding ELISA on coated HSA, pH 7.4
Procedure: After saturation with 5% PBS Casein pH 7.5, plates were washed and a dilution of AFFIMER® polypeptides or controls were incubated for 90 minutes. Plates were then washed, and a biotinylated polyclonal antibody anti-cystatin A (R&D Systems) was added for 1 hour. Plates were washed and AFFIMER® polypeptides were detected using streptavidin-HRP. After a last washing step, TMB was added for the development of the experiment and the plates were read at 450 nm.

[13] = target: T4, human PD-L1-Fc (R&D Systems) chimeric …; assay: binding ELISA on coated human PD-L1-Fc (table on the sheet is headed 'IC50 (nM)'; the text calls these values EC50)
Procedure: Briefly, human PD-L1-Fc (R&D Systems) chimeric protein was coated on 96 well plates at […] in carbonate buffer. After saturation with 5% casein/PBS buffer, the plates were washed and a dilution of AFFIMER® polypeptides or controls were incubated for 90 minutes. Plates were then washed and a biotinylated polyclonal antibody anti-cystatin A (R&D Systems) was added for 1 hour. Plates were washed and AFFIMER® polypeptides were detected using streptavidin-HRP. After a last washing step, TMB was added for the development of the experiment and plates were read at 450 nm.

binding response [6]	binding result [7]	koff [8] [s⁻¹]	kon [8] [M⁻¹ s⁻¹]	Kd [9] [nM]	koff [9] [s⁻¹]	kon [9] [M⁻¹ s⁻¹]	Kd [10] [nM]	Binder	other results
–	–	–	–	–	–	–	–	HSA-22 (designed binder) MIPRGLSEAKPATPEIQEIVDKVKPQLEEKTNETYGKLEAVQYKTQVLANWYQQRWPGSTNYYIKVRAGDNKYMHLKVFNGPWHNYGESSGADRVLTGYQVDKNKDDELTGFHHHHHH	Kd [1]: 44.7 nM; Kd [2]: 334 nM; Kd [3]: 146 nM; Kd [4]: 152 nM; Kd [5]: 348 nM
2.9	no binding (tested: 50 nM)	–	–	–	–	–	–	HSA-41 W83A (designed binder) MIPRGLSEAKPATPEIQEIVDKVKPQLEEKTNETYGKLEAVQYKTQVLANFFQRRWPGSTNYYIKVRAGDNKYMHLKVFNGPAKFRNTDRGADRVLTGYQVDKNKDDELTGFHHHHHH	–
2.8	no binding (tested: 50 nM)	–	–	–	–	–	–	HSA-41 F51A (designed binder) MIPRGLSEAKPATPEIQEIVDKVKPQLEEKTNETYGKLEAVQYKTQVLANAFQRRWPGSTNYYIKVRAGDNKYMHLKVFNGPWKFRNTDRGADRVLTGYQVDKNKDDELTGFHHHHHH	–
2.6	no binding (tested: 50 nM)	–	–	–	–	–	–	HSA-41 W56A (designed binder) MIPRGLSEAKPATPEIQEIVDKVKPQLEEKTNETYGKLEAVQYKTQVLANFFQRRAPGSTNYYIKVRAGDNKYMHLKVFNGPWKFRNTDRGADRVLTGYQVDKNKDDELTGFHHHHHH	–
2.2	no binding (tested: 50 nM)	–	–	–	–	–	–	HSA-41 F52A (designed binder) MIPRGLSEAKPATPEIQEIVDKVKPQLEEKTNETYGKLEAVQYKTQVLANFAQRRWPGSTNYYIKVRAGDNKYMHLKVFNGPWKFRNTDRGADRVLTGYQVDKNKDDELTGFHHHHHH	–
2.9	no binding (tested: 50 nM)	–	–	–	–	–	–	HSA-41 R55A (designed binder) MIPRGLSEAKPATPEIQEIVDKVKPQLEEKTNETYGKLEAVQYKTQVLANFFQRAWPGSTNYYIKVRAGDNKYMHLKVFNGPWKFRNTDRGADRVLTGYQVDKNKDDELTGFHHHHHH	–
–	–	–	–	–	–	–	–	HSA-37 (designed binder) MIPRGLSEAKPATPEIQEIVDKVKPQLEEKTNETYGKLEAVQYKTQVLAGFWASKWPGSTNYYIKVRAGDNKYMHLKVFNGPFTAVSKKDAADRVLTGYQVDKNKDDELTGFHHHHHH	Kd [1]: 136 nM; Kd [2]: 834 nM; Kd [3]: 231 nM; Kd [4]: 113 nM; Kd [5]: 221 nM
–	–	0.00695	1.52e+06	9.5	0.00252	267000	4.57	AVA04-236 XT8 (designed binder) MIPRGLSEAKPATPEIQEIVDKVKPQLEEKTNETYGKLEAVQYKTQVLAKEHGPDSWWSTNYYIKVRAGDNKYMHLKVFNGPQEKNQWVEEADRVLTGYQVDKNKDDELTGFAEAAAKEAAAKEAAAKEAAAKEAAAKEAAAKMIPRGLSEAKPATPEIQEIVDKVKPQLEEKTNETYGKLEAVQYKTQVLANFFQRRWPGSTNYYIKVRAGDNKYMHLKVFNGPWKFRNTDRGADRVLTGYQVDKNKDDELTGFHHHHHH	–
–	–	0.00431	1.14e+06	12.9	0.00228	177000	3.8	AVA04-269 XT12 (designed binder) MIPRGLSEAKPATPEIQEIVDKVKPQLEEKTNETYGKLEAVQYKTQVLAKEYGPEEWWSTNYYIKVRAGDNKYMHLKVFNGPGDYEQVLIHADRVLTGYQVDKNKDDELTGFAEAAAKEAAAKEAAAKEAAAKEAAAKEAAAKMIPRGLSEAKPATPEIQEIVDKVKPQLEEKTNETYGKLEAVQYKTQVLANFFQRRWPGSTNYYIKVRAGDNKYMHLKVFNGPWKFRNTDRGADRVLTGYQVDKNKDDELTGFHHHHHH	–
–	–	0.00826	875000	9.7	0.00291	299000	9.44	AVA04-261 XT10 (designed binder) MIPRGLSEAKPATPEIQEIVDKVKPQLEEKTNETYGKLEAVQYKTQVLAHAYGPRDWDSTNYYIKVRAGDNKYMHLKVFNGPPADHVLEEAADRVLTGYQVDKNKDDELTGFAEAAAKEAAAKEAAAKEAAAKEAAAKEAAAKMIPRGLSEAKPATPEIQEIVDKVKPQLEEKTNETYGKLEAVQYKTQVLANFFQRRWPGSTNYYIKVRAGDNKYMHLKVFNGPWKFRNTDRGADRVLTGYQVDKNKDDELTGFHHHHHH	–
–	–	–	–	–	–	–	–	AVA04-251 XT16 (designed binder) MIPRGLSEAKPATPEIQEIVDKVKPQLEEKTNETYGKLEAVQYKTQVLANFFQRRWPGSTNYYIKVRAGDNKYMHLKVFNGPWKFRNTDRGADRVLTGYQVDKNKDDELTGFAEAAAKEAAAKEAAAKEAAAKEAAAKEAAAKMIPRGLSEAKPATPEIQEIVDKVKPQLEEKTNETYGKLEAVQYKTQVLAREGRQDWVLSTNYYIKVRAGDNKYMHLKVFNGPWVPFPHQQLADRVLTGYQVDKNKDDELTGFAEAAAKEAAAKEAAAKEAAAKEAAAKEAAAKMIPRGLSEAKPATPEIQEIVDKVKPQLEEKTNETYGKLEAVQYKTQVLAREGRQDWVLSTNYYIKVRAGDNKYMHLKVFNGPWVPFPHQQLADRVLTGYQVDKNKDDELTGFHHHHHH	Kd [11]: 3.95 nM; koff [11]: 0.00324 s⁻¹; kon [11]: 821000 M⁻¹ s⁻¹; EC50 [12]: 0.059 nM; EC50 [13]: 0.11 nM
–	–	0.00707	395000	13.3	0.00357	269000	17.9	AVA04-261 XT9 (designed binder) MIPRGLSEAKPATPEIQEIVDKVKPQLEEKTNETYGKLEAVQYKTQVLAHAYGPRDWDSTNYYIKVRAGDNKYMHLKVFNGPPADHVLEEAADRVLTGYQVDKNKDDELTGFGGGGSGGGGSGGGGSGGGGSGGGGSGGGGSMIPRGLSEAKPATPEIQEIVDKVKPQLEEKTNETYGKLEAVQYKTQVLANFFQRRWPGSTNYYIKVRAGDNKYMHLKVFNGPWKFRNTDRGADRVLTGYQVDKNKDDELTGFHHHHHH	–
